Data on 4 molecules can be found in patent CN108264566A (SHANGHAI XINBAINUO BIOTECHNOLOGY CO LTD, dated 2018).

In one experiment the target is T1, CD3-CD70BsM_D.
T1 construct: Glycosylated, disulfide-linked homodimer through the IgD hinge linker; made in CHO-S cells; also called 二聚体形式的抗CD3/CD70双特异性分子
In words: ELISA, plate coated with 1 μg/ml CD27-hFc, binder titrated from 10 μg/ml. (In an ELISA, binding on a coated surface is turned into a signal by an enzyme label.)

For a further experiment, the target named is T2, CD3-CD70BsM_M.
T2 construct: made in CHO-S cells; also called 单体形式的抗CD3/CD70双特异性分子
Described as above.

The target in another experiment is T3, CD3-GITRL BsM_M.
T3 construct: made in CHO-S cells; also called 单体形式的抗CD3/GITRL双特异性分子
In words: ELISA, plate coated with 1 μg/ml GITR-hFc, binder titrated from 10 μg/ml.

A further experiment concerns the target T4, CD3-GITRL BsM_D.
T4 construct: Glycosylated, disulfide-linked homodimer through the IgD hinge linker; made in CHO-S cells; also called 二聚体形式的抗CD3/GITRL双特异性分子
The description is as above.

A further experiment addresses T5, CD3-B7RP-1BsM_M.
T5 construct: made in CHO-S cells; also called 单体形式的抗CD3/B7RP-1双特异性分子
In words: ELISA, plate coated with 1 μg/ml ICOS-hFc, binder titrated from 10 μg/ml.

The target in a further experiment is T6, CD3-B7RP-1BsM_D.
T6 construct: Glycosylated, disulfide-linked homodimer through the IgD hinge linker; made in CHO-S cells; also called 二聚体形式的抗CD3/B7RP-1双特异性分子
The description is as above.

The next experiment addresses T7, CD3-OX40L BsM_M.
T7 construct: made in CHO-S cells; also called 单体形式的抗CD3/OX40L双特异性分子
In words: ELISA, plate coated with 1 μg/ml OX40-hFc, binder titrated from 10 μg/ml.

For the next experiment, the target named is T8, CD3-OX40L BsM_D.
T8 construct: Glycosylated, disulfide-linked homodimer through the IgD hinge linker; made in CHO-S cells; also called 二聚体形式的抗CD3/OX40L双特异性分子
The experiment is described as above.

B1: 人类CD27-hFc融合蛋白 (Fc fusion)
chain: ATPAPKSCPERHYWAQGKLCCQMCEPGTFLVKDCDQHRKAAQCDPCIPGVSFSPDHHTRPHCESCRHCNSGLLVRNCTITANAECACRNGWQCRDKECTECDPLPNPSLTARSSQALSPHPQPTHLPYVSEMLEARTAGHMQTLADFRQLPARTLSTHWPPQRSLCSSDFIR
notes: Bought fusion protein; also called 重组蛋白CD27-hFc; not shown: human Fc (hFc) of the bought fusion protein
For B1, the binding result with CD3-CD70BsM_D and with CD3-CD70BsM_M was “binds” each time.

B2: 人类GITR-hFc融合蛋白 (Fc fusion)
chain: QRPTGGPGCGPGRLLLGTGTDARCCRVHTTRCCRDYPGEECCSEWDCMCVQPEFHCGDPCCTTCRHHPCPPGQGVQSQGKFSFGFQCIDCASGTFSGGHEGHCKPWTDCTQFGFLTVFPGNKTHNAVCVPGSPPAEP
notes: Bought fusion protein; also called 重组蛋白GITR-hFc; not shown: human Fc (hFc) of the bought fusion protein
For B2, the binding result with CD3-GITRL BsM_M and with CD3-GITRL BsM_D was “binds” throughout.

B3: 人类ICOS-hFc融合蛋白 (Fc fusion)
chain: EINGSANYEMFIFHNGGVQILCKYPDIVQQFKMQLLKGGQILCDLTKTKGSGNTVSIKSLKFCHSQLSNNSVSFFLYNLDHSHANYYFCNLSIFDPPPFKVTLTGGYLHIYESQLCCQLK
notes: Bought fusion protein; also called 重组蛋白ICOS-hFc; not shown: human Fc (hFc) of the bought fusion protein
For B3, the binding result with CD3-B7RP-1BsM_M and in the experiment with CD3-B7RP-1BsM_D was “binds” in each case.

B4: 人类OX40-hFc融合蛋白 (Fc fusion)
chain: LHCVGDTYPSNDRCCHECRPGNGMVSRCSRSQNTVCRPCGPGFYNDVVSSKPCKPCTWCNLRSGSERKQLCTATQDTVCRCRAGTQPLDSYKPGVDCAPCPPGHFSPGDNQACKPWTNCTLAGKHTLQPASNSSDAICEDRDPPATQPQETQGPPARPITVQPTEAWPRTSQGPSTRPVEVPGGRA
notes: Bought fusion protein; also called 重组蛋白OX40-hFc; not shown: human Fc (hFc) of the bought fusion protein
As for B4, the binding result in the experiment with CD3-OX40L BsM_M and with CD3-OX40L BsM_D was “binds” throughout.
